Data from patent US20070154901A1 (ANAPHORE, published 2007).

B2: recombinant full length tetranectin (TN123) (other)
chain: GEPPTQKPKKIVNAKKDVVNTKMFEELKSRLDTLAQEVALLKEQQALQTVCLKGTKVHMKCFLAFTQTKTFHEASEDCISRGGTLSTPQTGSENDALYEYLRQSVGNEAEIWLGLNDMAAEGTWVDMTGARIAYKNWETEITAQPDGGKTENCAVLSGAANGKWFDKRCRDQLPYICQFGIV
notes: Found as a trimer in solution; also called rTN123

Legend:
[1] = biological target: the molecule itself; assay: DMSI cross-linking with rising DMSI at room temperature, SDS-PAGE; self-association
Protocol: After completion of the refolding procedure each column was washed with 300 ml buffer containing 0.5 M NaCl and 50 mM Tris-HCl pH 8 to wash away glutathione. The refolded fraction of each protein was then eluted from the NTA-agarose matrix by addition of 20 mM EDTA to the elution buffer. After addition of solid urea to achieve a final concentration of about 8 M to each protein sample and dilution or dialysis to reduce NaCl concentrations to below 5 mM, final purification of each correctly folded fusion protein product was then accomplished by ion exchange chromatography (S-Sepharose, Pharmacia, 1,6 (i.d.) by 90 centimeter column in a buffer containing 8 M urea, 5 mM Tris-HCl (from 1 M stock solution at pH 8) and 25 mM sodium acetate (from 1 M stock solution at pH 5), eluted at 2 ml/min). After dialysis against aqueous buffers (e.g. phosphate buffered saline) each pure and correctly refolded fusion protein was recovered in yields of 2-6 mg per litre of culture grown. […] Reactions were quenched by addition of 5 μl 3M Tris-HCl pH 9 and the samples analyzed by SDS-PAGE under reducing conditions (FIG. 21). Like tetranectin, the H6FXtripb-scFV-(CEA6) fusion protein, of approximately 38 kDa, is hereby shown to be a trimer in solution.

[2] = biological target: the molecule itself; assay: analytical gel filtration on Superose 12; self-association
Protocol: (§1) FIG. 9: Gel filtration analysis of TN123, TN23, and TN3 Analytical gel filtration of the recombinant tetranectin derivatives TN123, TN23, and TN3 were performed on a Superose 12 HR 10/30 column (Pharmacia, Sweden) with a total volume of 25 ml in 100 mM NaCl and 50 mM Tris-HCl pH 8 and a flow rate of 0.2 ml/min. Vertical bars at peak maxima identify elution profiles for each of the three proteins.
(§2) Analytical gelfiltration of the recombinant tetranectin derivatives TN123, TN3, and TN23 (FIG. 9) were performed on a Superose 12 HR 10/30 column (Pharmacia, Sweden) with a total volume of 25 ml in 100 mM NaCl and 50 mM Tris-HCl pH 8 and a flow rate of 0.2 ml/min. The Kₐᵥ value is defined by, Kₐᵥ=(Ve−Vo)/(Vc−Vo).

[3] = biological target: the molecule itself; assay: DMSI cross-linking and SDS-PAGE; self-association
Protocol: (§3) The recombinant tetranectin derivatives TN123, TN3, and TN23, together with the fusion proteins CIIH6FXTN123 and H6FXTN12 or mixtures of these derivatives at 1 mg/ml concentrations in cross-linking buffer (0.1 M Sodium borate, pH 9.1) were incubated with dimethylsuberimidate (DMSI, Sigma). 10 μl aliquots of protein solution were incubated with 1 μl aliquots of DMSI stock solution (20 mg/ml in cross-linking buffer) for 30 minutes at 25° C. before addition of 2 μl quenching buffer (3 M Tris-HCl, pH 9). Subunit exchange between preformed homo-oligomers was induced by subjecting protein mixtures to heat shock treatment. Five μl aliquots of each protein solution (1 mg/ml stocks) were mixed at 0° C. in standard polypropylene microcentrifuge tubes, transferred to a water bath at 70° C. for the time spans indicated, and then further incubated for 15 minutes at 25° C. before reaction with DMSI.
Subunit exchange could be induced by incubating the protein mixture at 70° C. for 15 seconds or longer before cooling to room temperature and addition of DMSI. […] It should be noted, that molecular weight markers have only been included on the SDS-PAGE gels for crude calibration and orientation of the gels.

[4] = biological target: B2; assay: DMSI cross-linking and SDS-PAGE after subunit exchange at 70 C for 15 s or longer; no exchange after 16 h at room temperature
Protocol: FIG. 10: Cross-linking analysis of TN123 and CIIH6FXTN123. Samples of TN123, CIIH6FXTN123 and mixtures of both were incubated with DMSI and analyzed by SDS-PAGE (12% gel). Before addition of DMSI, protein mixtures were subjected to subunit exchange by incubation at 70° C. for varying length of time. Protein marker of 94, 68, 43 and 30 kDa, top to bottom (lane M). CIIH6FXTN123 fusion protein (lane 1). TN123 (lane 2). DMSI treated CIIH6FXTN123 (lanes 3 and 6). DMSI-treated TN123 (lane 4). Identical samples of DMSI treated mixtures of CIIH6FXTN123 and TN123 without heat exposure (lanes 5 and 7) and heat treated for 2.5 sec, 15 sec, 2.5 min. and 10 min., respectively, before treatment with DMSI (lanes 8-11).
as §3, with “Five μl aliquots of each protein solution (1 mg/ml stocks) were mixed at 0° C. in standard polypropylene microcentrifuge tubes, transferred to a water bath at 70° C. for the time spans indicated, and then further incubated for 15 minutes at 25° C. before reaction with DMSI.” left out

[5] = biological target: B2; assay: DMSI cross-linking and SDS-PAGE after heat treatment at 70 C
Protocol: as §3

[6] = biological target: the molecule itself; assay: analytical gel filtration on Superose 12
Protocol: as §1, §2

[7] = biological target: B2; assay: DMSI cross-linking of the mixture with and without heat treatment at 70 C, SDS-PAGE
Protocol: as §3

B1: fusion protein H6FXtripb-scFv(CEA6) (scFv)
chain: MGSHHHHHHGSIQGRSPGTEPPTQKPKKIVNAKKDVVNTKMFEELKSRLDTLAQEVALLKEQQALQTGSQVQLQQSGAEVKKPGSSVKVSCKASGGTFSNSPINWLRQAPGQGLEWMGSIIPSFGTANYAQKFQGRLTITADESTSTAYMELSSLRSEDTAVYYCAGRSHNYELYYYYMDVWGQGTMVTVSSGGGGSGGGGSGGGGSDIQMTQSPSTLSASIGDRVTITCRASEGIYHWLAWYQQKPGKAPKLLIYKASSLASGAPSRFSGSGSGTDFTLTISSLQPDDFATYYCQQYSNYPLTFGGGTKLEIKRAAAEQKLISEEDLNGA
notes: About 38 kDa per monomer; Only its self-association was tested
Q: Does B1 bind [1]?
A: Result: binds

Q: Does B2 bind [2]?
A: Result: binds

B3: recombinant tetranectin derivative TN23 (other)
chain: VVNTKMFEELKSRLDTLAQEVALLKEQQALQTVCLKGTKVHMKCFLAFTQTKTFHEASEDCISRGGTLSTPQTGSENDALYEYLRQSVGNEAEIWLGLNDMAAEGTWVDMTGARIAYKNWETEITAQPDGGKTENCAVLSGAANGKWFDKRCRDQLPYICQFGIV
notes: It is a trimer by gel filtration but appeared monomeric after DMSI cross-linking
Q: Does B3 bind [2]?
A: Result: binds

B4: tetranectin fusion protein CIIH6FXTN123 (other)
chain: MVRANKRNEALRIESALLNKIAMLGTEKTAEGGSHHHHHHGSIEGRGEPPTQKPKKIVNAKKDVVNTKMFEELKSRLDTLAQEVALLKEQQALQTVCLKGTKVHMKCFLAFTQTKTFHEASEDCISRGGTLSTPQTGSENDALYEYLRQSVGNEAEIWLGLNDMAAEGTWVDMTGARIAYKNWETEITAQPDGGKTENCAVLSGAANGKWFDKRCRDQLPYICQFGIV
notes: Uncleaved fusion protein; Forms homo-trimers, and forms hetero-trimers with TN123; also called H6CIIFXTN123
Q: Does B4 bind [3]?
A: Result: binds

Q: Does B4 bind [4]?
A: Result: binds

B5: fusion protein H6FXTN12 (other)
chain: MGSHHHHHHGSIEGRGEPPTQKPKKIVNAKKDVVNTKMFEELKSRLDTLAQEVALLKEQQALQTV
notes: Uncleaved fusion protein; Formed homo-trimers upon cross-linking; also called H6-rTN12
Q: Does B5 bind [3]?
A: Result: binds

Q: Does B5 bind [5]?
A: Result: binds

B6: recombinant tetranectin derivative TN3 (other)
chain: ALQTVCLKGTKVHMKCFLAFTQTKTFHEASEDCISRGGTLSTPQTGSENDALYEYLRQSVGNEAEIWLGLNDMAAEGTWVDMTGARIAYKNWETEITAQPDGGKTENCAVLSGAANGKWFDKRCRDQLPYICQFGIV
notes: Appeared monomeric
Q: Does B6 bind [6]?
A: Result: no binding

Q: Does B6 bind [7]?
A: Result: no binding
